Data published in patent US6046310, “FAS ligand fusion proteins and their uses” (Protein Design Labs., Inc., dated 2000).
Positions count from the first letter of the chain named. In names and notes the source's numbering stands.

B1: HuABL364 antibody (antibody, V domains shown)
VH: EVQLLESGGGLVQPGGSLRLSCAASGFTFSDYYMYWVRQAPEKRLEWVAYISNGGGSSHYVDSVKGRFTISRDNAKNTLYLQMNSLRAEDTALYHCARGMDYGAWFAYWGQGTLVTVSS
VL: DIVMTQSPLSLPVTPGEPASISCRSSQSIVHSNGNTYLEWYLQKPGQSPQLLISKVSNRFSGVPDRFSGSGSGTDFTLKISRVEAEDVGVYYCFQGSHVPFTFGQGTKLEIK
B2: HuABL364 Ig-FasL5 (other)
heavy (part 1 of 2): B1 VH
heavy (part 2 of 2): GTGHPSPPPEKKELRKVAHLTGKSNSRSMPLEWEDTYGIVLLSGVKYKKGGLVINETGLYFVYSKVYFRGQSCNNLPLSHKVYMRNSKYPQDLVMMEGKMMSYCTTGQMWARSSYLGAVFNLTSADHLYVNVSELSLVNFEESQTFFGLYKL
light: B1 VL
B3: HuABL364 Ig-FasL5 Y232A (other)
heavy (part 1 of 2): B1 VH
heavy (part 2 of 2): B2 heavy (part 2 of 2) with Y103A
light: B1 VL
B4: HuABL364 Ig-FasL5 Y192A (other)
heavy (part 1 of 2): B1 VH
heavy (part 2 of 2): B2 heavy (part 2 of 2) with Y63A
light: B1 VL
B5: HuABL364 Ig-FasL5 Y189A (other)
heavy (part 1 of 2): B1 VH
heavy (part 2 of 2): B2 heavy (part 2 of 2) with Y60A
light: B1 VL
B6: HuABL364 Ig-FasL5 Y244A (other)
heavy (part 1 of 2): B1 VH
heavy (part 2 of 2): B2 heavy (part 2 of 2) with Y115A
light: B1 VL
B7: HuABL364 Ig-FasL5 H148S (other)
heavy (part 1 of 2): B1 VH
heavy (part 2 of 2): B2 heavy (part 2 of 2) with H19S
light: B1 VL
B8: HuABL364 Ig-FasL5 V248A (other)
heavy (part 1 of 2): B1 VH
heavy (part 2 of 2): B2 heavy (part 2 of 2) with V119A
light: B1 VL
B9: HuABL364 Ig-FasL5 M229A (other)
heavy (part 1 of 2): B1 VH
heavy (part 2 of 2): B2 heavy (part 2 of 2) with M100A
light: B1 VL
B10: HuABL364 Ig-FasL5 L170A (other)
heavy (part 1 of 2): B1 VH
heavy (part 2 of 2): B2 heavy (part 2 of 2) with L41A
light: B1 VL
B11: HuABL364 Ig-FasL5 I168A (other)
heavy (part 1 of 2): B1 VH
heavy (part 2 of 2): B2 heavy (part 2 of 2) with I39A
light: B1 VL

Biological target: T1, Fas on the cell surface of human cell lines (MOLT-4, CESS, T47D) (human, UniProt P25445)
Experiment: flow cytometry on MOLT-4 cells (express Fas but not the antigen for HuABL364), anti-human IgG FITC
Method: MOLT-4, a human T lymphocyte line that expresses Fas on the cell surface (B. Trauth et al., *Science*, 245:301, 1989, incorporated herein by reference) but not the antigen for HuABL364, was stained by incubation with protein G-purified HuABL364 lg-FasL followed by incubation with an anti-human IgG FITC reagent (Jackson Immunoresearch, #715-096-151). Positive staining by HuABL364 Ig-FasL was detected by flow cytometry, compared to negative staining with the HuABL364 antibody.

binding result	Binder
no binding	B1

Biological target: T1, Fas on the cell surface of human cell …
Experiment: cell-based or functional assay

% apoptotic cells, CESS [% apoptotic cells]	% apoptotic cells, T47D [% apoptotic cells]	Binder
88	91	B2
32	88	B3
25	10	B4
24	11	B5
24	16	B6
26	15	B7
87	95	B8
90	95	B9
87	98	B10
81	91	B11
